Results as given in patent EP4610277A1 (Daiichi Sankyo Company, Limited, dated 2025).
Each block holds one binder with its values, some of them ahead of it.

Assays:
[1] = target: T1, recombinant KIR2DS1 (extracellular domain-Fc-Avi, in-house) (human); assay: flow cytometry, KIR-Fc on scFv-K562 cells
T1 construct: In-house; IL-2 signal peptide left out; also called soluble KIR2DS1

[2] = target: T2, recombinant KIR2DS4 (extracellular domain-Fc-Avi, in-house) (human); assay: flow cytometry, KIR-Fc on scFv-K562 cells
T2 construct: In-house; IL-2 signal peptide left out; also called soluble KIR2DS4

[3] = target: T3, recombinant KIR2DS2 (extracellular domain-Fc-Avi, in-house) (human); assay: flow cytometry, KIR-Fc on scFv-K562 cells
T3 construct: In-house; IL-2 signal peptide left out; also called soluble KIR2DS2

[4] = target: T4, KIR2DL1 (Fc, R&D system 1844-KR-050) (UniProt P43626 22-245); assay: flow cytometry, tagged protein on scFv-K562 cells
T4 construct: Bought Fc-tagged protein

[5] = target: T5, CD161 (Fc, R&D system 7448-CD-050) (UniProt Q12918 67-225); assay: flow cytometry, tagged protein on scFv-K562 cells
T5 construct: Bought Fc-tagged protein

[6] = target: T6, NKG2D (Fc, R&D system 1299-NK-050) (UniProt P26718 78-216); assay: flow cytometry, tagged protein on scFv-K562 cells
T6 construct: Bought Fc-tagged protein
T6 sequence (looked up): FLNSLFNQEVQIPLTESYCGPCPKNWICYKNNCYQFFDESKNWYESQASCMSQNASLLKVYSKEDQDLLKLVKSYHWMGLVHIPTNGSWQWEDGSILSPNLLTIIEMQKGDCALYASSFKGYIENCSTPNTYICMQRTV

[7] = target: T7, KIR2DL5 (Fc, R&D system 6634-KR-050) (UniProt Q8N109 22-238, limits assumed); assay: flow cytometry, tagged protein on scFv-K562 cells
T7 construct: Bought Fc-tagged protein

[8] = target: T8, NKp30 (Fc, R&D system 1849-NK-025) (UniProt O14931 19-138, limits assumed); assay: flow cytometry, tagged protein on scFv-K562 cells
T8 construct: Bought Fc-tagged protein
T8 sequence (looked up): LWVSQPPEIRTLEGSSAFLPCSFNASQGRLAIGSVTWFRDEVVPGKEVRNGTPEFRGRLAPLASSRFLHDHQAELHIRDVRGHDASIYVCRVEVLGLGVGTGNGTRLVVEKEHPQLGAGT

[9] = target: T9, NKp46 (Fc, R&D system 1850-NK-025) (UniProt O76036 22-258, limits assumed); assay: flow cytometry, tagged protein on scFv-K562 cells
T9 construct: Bought Fc-tagged protein

[10] = target: T10, CD32b/c (Fc, R&D system 1875-CD-050) (UniProt P31994 46-217); assay: flow cytometry, tagged protein on scFv-K562 cells
T10 sequence (looked up): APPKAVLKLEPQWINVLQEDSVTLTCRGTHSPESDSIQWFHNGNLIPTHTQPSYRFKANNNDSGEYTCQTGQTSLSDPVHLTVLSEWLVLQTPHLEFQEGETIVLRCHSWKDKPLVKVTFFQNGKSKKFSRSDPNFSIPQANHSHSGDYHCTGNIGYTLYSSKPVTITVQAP

[11] = target: T11, KIR2DL4 (Fc, R&D system 2238-KR-050) (UniProt Q99706 24-242, limits assumed); assay: flow cytometry, tagged protein on scFv-K562 cells
T11 construct: Bought Fc-tagged protein

[12] = target: CD64 (Fc, R&D system 1257-FC-050) (UniProt P12314 16-288); assay: flow cytometry, tagged protein on scFv-K562 cells
[13] = target: KIR2DS3 (Fc, prepared in-house) (UniProt Q14952 22-245, limits assumed); assay: flow cytometry, tagged protein on scFv-K562 cells
[14] = target: CD16a (Fc, R&D system 4325-FC-050) (UniProt P08637 17-208); assay: flow cytometry, tagged protein on scFv-K562 cells
[15] = target: T12, NKG2E (Fc, R&D system 9759-NK-050) (UniProt Q07444 94-240, limits assumed); assay: flow cytometry, tagged protein on scFv-K562 cells
T12 construct: Bought Fc-tagged protein

[16] = target: T13, recombinant human KIR3DS1/CD158e2 Fc chimera protein (4136-KR-050, R&D Systems) (human, UniProt Q14943 22-340, limits assumed); assay: flow cytometry, tagged protein on scFv-K562 cells
T13 construct: Bought Fc chimera; also called soluble KIR3DS1; recombinant KIR3DS1

[17] = target: T14, NKp44 (Fc, R&D system 2249-NK-050) (UniProt O95944 22-190, limits assumed); assay: flow cytometry, tagged protein on scFv-K562 cells
T14 construct: Bought Fc-tagged protein
T14 sequence (looked up): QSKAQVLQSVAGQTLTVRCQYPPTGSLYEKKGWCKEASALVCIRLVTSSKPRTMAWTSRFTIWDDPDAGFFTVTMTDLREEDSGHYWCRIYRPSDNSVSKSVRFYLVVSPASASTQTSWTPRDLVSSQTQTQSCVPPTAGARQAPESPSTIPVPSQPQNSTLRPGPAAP

[18] = target: T15, NKG2C (Fc, R&D system 138-NK-050) (UniProt P26717 94-231, limits assumed); assay: flow cytometry, tagged protein on scFv-K562 cells
T15 construct: Bought Fc-tagged protein

[19] = target: T16, LILRB1 (Fc, R&D system 2017-T2-050) (UniProt Q8NHL6 24-458); assay: flow cytometry, tagged protein on scFv-K562 cells
T16 construct: Bought Fc-tagged protein

[20] = target: CD16b (Fc, R&D system 1597-FC-050) (UniProt O75015 17-200, limits assumed); assay: flow cytometry, tagged protein on scFv-K562 cells
[21] = target: T17, KIR3DL3 (Fc, R&D system 10104-KR-050) (UniProt Q8N743 26-322, limits assumed); assay: flow cytometry, tagged protein on scFv-K562 cells
T17 construct: Bought Fc-tagged protein

[22] = target: T18, LILRB2 (His, R&D system 8429-T4-050) (UniProt Q8N423 22-458); assay: flow cytometry, tagged protein on scFv-K562 cells
T18 construct: Bought His-tagged protein

[23] = target: T19, NKG2A (Fc, R&D system 10511-NK-050) (UniProt P26715 94-233, limits assumed); assay: flow cytometry, tagged protein on scFv-K562 cells
T19 construct: Bought Fc-tagged protein

[24] = target: T20, CD32a (Fc, R&D system 1330-CD-050) (UniProt P12318 36-218); assay: flow cytometry, tagged protein on scFv-K562 cells
T20 sequence (looked up): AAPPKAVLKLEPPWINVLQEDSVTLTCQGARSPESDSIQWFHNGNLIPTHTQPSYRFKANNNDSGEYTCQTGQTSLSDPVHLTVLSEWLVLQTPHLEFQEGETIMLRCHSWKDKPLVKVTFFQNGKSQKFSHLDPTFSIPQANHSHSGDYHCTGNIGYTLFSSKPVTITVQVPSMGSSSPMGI

[25] = target: T21, TIGIT (Fc, R&D system 9464-TG-050) (UniProt Q495A1 22-141); assay: flow cytometry, tagged protein on scFv-K562 cells
T21 construct: Bought Fc-tagged protein
T21 sequence (looked up): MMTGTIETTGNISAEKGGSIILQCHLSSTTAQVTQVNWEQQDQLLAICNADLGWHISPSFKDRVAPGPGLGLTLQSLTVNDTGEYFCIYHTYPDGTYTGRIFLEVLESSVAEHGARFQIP

[26] = target: T22, KIR3DL1 (Fc, R&D system 1225-KR-050) (UniProt P43629 22-340); assay: flow cytometry, tagged protein on scFv-K562 cells
T22 construct: Bought Fc-tagged protein

[27] = target: T23, KIR2DL2 (22-225)-His, deglycosylated (human, UniProt P43627 22-225); assay: size exclusion chromatography of the mixed proteins; complex then crystallised
T23 construct: IL-2 signal peptide left out; treated with Protein Deglycosylation Mix II; also called recombinant KIR2DL2

T18 sequence (Q8N423 22-458 limits assumed): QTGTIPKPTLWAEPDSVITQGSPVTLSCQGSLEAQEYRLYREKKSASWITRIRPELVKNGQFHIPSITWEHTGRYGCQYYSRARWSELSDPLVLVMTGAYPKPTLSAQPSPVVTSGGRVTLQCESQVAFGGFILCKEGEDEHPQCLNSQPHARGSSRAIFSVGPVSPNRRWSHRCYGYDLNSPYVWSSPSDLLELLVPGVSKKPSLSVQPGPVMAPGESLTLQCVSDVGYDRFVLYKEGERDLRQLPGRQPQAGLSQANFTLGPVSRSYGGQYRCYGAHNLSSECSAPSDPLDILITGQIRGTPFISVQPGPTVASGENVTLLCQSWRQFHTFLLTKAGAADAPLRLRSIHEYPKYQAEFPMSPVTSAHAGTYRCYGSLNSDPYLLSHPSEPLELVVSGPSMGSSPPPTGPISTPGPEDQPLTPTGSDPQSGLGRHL
T16 sequence (Q8NHL6 24-458 limits assumed): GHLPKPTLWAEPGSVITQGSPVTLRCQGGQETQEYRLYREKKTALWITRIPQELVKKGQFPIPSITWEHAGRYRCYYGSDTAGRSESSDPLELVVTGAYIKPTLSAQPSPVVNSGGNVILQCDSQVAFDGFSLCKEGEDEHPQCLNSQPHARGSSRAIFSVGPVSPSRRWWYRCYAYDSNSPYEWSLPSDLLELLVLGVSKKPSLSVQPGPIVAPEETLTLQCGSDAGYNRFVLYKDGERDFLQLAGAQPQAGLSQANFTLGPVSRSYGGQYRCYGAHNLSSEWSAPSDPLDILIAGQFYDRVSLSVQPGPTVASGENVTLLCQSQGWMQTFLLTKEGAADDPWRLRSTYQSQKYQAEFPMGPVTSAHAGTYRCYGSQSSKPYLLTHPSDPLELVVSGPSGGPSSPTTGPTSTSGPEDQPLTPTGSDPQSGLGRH
T12 sequence (Q07444 94-240 limits assumed): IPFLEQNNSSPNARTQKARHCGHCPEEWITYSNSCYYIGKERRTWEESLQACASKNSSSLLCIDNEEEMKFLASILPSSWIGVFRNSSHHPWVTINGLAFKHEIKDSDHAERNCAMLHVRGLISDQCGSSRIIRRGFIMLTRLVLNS
T22 sequence (P43629 22-340 limits assumed): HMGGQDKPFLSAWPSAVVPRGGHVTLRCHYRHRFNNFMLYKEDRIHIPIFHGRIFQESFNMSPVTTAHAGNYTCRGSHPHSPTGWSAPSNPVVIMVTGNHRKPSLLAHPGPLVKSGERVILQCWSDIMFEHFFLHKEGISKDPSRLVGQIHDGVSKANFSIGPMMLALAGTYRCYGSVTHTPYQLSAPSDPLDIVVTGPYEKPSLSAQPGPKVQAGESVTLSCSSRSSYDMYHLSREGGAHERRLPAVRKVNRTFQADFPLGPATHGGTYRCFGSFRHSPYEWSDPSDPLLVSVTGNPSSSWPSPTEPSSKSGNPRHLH
T11 sequence (Q99706 24-242 limits assumed): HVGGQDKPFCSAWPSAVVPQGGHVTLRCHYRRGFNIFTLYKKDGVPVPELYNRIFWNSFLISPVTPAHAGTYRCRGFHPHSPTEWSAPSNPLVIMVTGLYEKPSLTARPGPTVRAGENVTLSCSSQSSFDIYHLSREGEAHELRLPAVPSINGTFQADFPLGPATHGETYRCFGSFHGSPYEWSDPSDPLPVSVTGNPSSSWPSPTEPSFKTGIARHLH
Chain of CD16a (Fc, R&D system 4325-FC-050) (P08637 17-208 limits assumed): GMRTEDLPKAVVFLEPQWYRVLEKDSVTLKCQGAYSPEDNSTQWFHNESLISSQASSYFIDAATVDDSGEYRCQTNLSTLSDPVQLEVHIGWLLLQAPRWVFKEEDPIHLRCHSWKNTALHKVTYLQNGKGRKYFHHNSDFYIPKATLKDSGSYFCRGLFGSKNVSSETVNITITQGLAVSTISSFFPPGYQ
T1 sequence (chain, as listed by the source): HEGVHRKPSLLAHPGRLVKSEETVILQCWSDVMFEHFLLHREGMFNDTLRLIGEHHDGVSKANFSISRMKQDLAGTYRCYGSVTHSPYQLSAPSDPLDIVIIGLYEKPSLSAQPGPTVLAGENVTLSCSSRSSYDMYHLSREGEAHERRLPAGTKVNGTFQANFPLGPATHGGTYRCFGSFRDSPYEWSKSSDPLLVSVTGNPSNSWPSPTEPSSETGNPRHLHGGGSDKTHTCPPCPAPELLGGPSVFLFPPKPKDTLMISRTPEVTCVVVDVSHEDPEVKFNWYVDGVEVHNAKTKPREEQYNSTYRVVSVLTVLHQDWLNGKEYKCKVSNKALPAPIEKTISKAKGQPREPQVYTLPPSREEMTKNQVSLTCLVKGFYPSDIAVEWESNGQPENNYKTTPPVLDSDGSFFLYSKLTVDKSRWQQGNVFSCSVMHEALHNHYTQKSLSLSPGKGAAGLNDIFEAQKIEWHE
T7 sequence (Q8N109 22-238 limits assumed): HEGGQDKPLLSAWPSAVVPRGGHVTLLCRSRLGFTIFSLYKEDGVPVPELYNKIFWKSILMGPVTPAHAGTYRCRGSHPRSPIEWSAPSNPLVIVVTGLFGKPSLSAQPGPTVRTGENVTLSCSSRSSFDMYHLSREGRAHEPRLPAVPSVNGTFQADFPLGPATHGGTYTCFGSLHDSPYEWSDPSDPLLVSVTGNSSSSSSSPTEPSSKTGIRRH
Chain of CD16b (Fc, R&D system 1597-FC-050) (O75015 17-200 limits assumed): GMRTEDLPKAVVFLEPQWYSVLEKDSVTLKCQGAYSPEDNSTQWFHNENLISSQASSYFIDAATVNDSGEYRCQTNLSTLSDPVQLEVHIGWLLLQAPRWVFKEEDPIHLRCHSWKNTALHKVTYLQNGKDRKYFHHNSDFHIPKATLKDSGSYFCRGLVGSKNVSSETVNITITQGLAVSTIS
T17 sequence (Q8N743 26-322 limits assumed): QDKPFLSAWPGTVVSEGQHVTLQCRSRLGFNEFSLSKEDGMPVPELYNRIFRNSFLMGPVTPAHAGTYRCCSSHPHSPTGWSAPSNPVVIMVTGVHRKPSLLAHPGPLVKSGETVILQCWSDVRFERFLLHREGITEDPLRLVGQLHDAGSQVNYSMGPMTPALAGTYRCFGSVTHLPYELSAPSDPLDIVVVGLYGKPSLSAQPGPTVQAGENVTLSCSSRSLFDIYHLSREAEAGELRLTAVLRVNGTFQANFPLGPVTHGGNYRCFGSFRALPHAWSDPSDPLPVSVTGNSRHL
T15 sequence (P26717 94-231 limits assumed): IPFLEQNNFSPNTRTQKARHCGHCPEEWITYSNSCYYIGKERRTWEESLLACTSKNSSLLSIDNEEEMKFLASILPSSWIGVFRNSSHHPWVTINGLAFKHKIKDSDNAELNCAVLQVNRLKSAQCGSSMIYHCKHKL
T4 sequence (P43626 22-245 limits assumed): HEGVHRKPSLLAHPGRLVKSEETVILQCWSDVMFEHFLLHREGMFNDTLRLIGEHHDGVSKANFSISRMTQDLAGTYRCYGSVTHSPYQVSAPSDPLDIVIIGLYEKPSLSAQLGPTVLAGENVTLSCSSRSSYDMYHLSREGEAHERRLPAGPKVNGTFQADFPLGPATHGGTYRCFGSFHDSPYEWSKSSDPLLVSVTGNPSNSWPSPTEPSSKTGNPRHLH
T13 sequence (Q14943 22-340 limits assumed, change not shown): as the sequence (P43629 22-340 limits assumed) above, with I47V, S58G, V92M, K136R, G138W, P163S, L166R, P199L, P315L counted along it
Chain of KIR2DS3 (Fc, prepared in-house) (Q14952 22-245 limits assumed): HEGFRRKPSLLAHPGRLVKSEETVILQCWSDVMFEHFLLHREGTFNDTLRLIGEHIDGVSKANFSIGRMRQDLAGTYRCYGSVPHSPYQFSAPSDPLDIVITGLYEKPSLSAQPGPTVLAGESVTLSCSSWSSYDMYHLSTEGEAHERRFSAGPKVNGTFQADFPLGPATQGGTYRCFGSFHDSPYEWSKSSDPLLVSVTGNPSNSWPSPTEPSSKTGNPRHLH
T2 sequence (chain, as listed by the source): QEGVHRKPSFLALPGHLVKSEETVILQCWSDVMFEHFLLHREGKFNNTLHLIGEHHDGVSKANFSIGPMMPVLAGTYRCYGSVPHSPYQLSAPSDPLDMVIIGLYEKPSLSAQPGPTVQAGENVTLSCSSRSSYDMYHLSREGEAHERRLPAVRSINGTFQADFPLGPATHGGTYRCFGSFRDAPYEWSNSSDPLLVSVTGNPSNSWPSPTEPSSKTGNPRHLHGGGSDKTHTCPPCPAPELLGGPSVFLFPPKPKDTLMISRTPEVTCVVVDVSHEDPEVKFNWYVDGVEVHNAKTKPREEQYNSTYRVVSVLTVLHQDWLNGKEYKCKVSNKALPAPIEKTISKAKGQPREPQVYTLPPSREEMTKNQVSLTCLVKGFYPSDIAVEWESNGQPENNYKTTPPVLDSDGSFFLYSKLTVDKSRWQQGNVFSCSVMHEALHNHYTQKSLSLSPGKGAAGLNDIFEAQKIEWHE
T3 sequence (chain, as listed by the source): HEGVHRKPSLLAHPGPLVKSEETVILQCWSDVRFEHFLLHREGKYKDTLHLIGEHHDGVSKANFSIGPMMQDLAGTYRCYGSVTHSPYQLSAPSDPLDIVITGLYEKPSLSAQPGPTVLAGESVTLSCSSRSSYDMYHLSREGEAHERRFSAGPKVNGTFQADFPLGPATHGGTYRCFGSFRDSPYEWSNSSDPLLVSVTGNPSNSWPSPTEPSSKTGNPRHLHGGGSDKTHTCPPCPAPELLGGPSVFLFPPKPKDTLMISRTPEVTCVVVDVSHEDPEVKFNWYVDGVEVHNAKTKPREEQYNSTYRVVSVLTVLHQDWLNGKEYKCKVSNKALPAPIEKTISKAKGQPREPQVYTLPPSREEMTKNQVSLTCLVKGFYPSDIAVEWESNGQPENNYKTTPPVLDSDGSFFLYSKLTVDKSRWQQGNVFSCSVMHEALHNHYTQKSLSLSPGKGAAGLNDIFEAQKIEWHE
T19 sequence (P26715 94-233 limits assumed): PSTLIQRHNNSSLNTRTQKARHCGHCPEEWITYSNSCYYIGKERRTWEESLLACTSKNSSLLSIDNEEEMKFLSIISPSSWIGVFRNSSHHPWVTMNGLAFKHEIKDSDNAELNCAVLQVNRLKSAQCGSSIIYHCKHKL

binding result [1]: no binding (tested: 0.1 µM)
binding result [2]: no binding (tested: 0.1 µM)
binding result [3]: no binding (tested: 0.1 µM)
binding result [4]: no binding (tested: 0.1 µM)
binding result [5]: no binding (tested: 0.1 µM)
binding result [6]: no binding (tested: 0.1 µM)
binding result [7]: no binding (tested: 0.1 µM)
binding result [8]: no binding (tested: 0.1 µM)
binding result [9]: no binding (tested: 0.1 µM)
binding result [10]: no binding (tested: 0.1 µM)
binding result [11]: no binding (tested: 0.1 µM)
binding result [12]: no binding (tested: 0.1 µM)
binding result [13]: no binding (tested: 0.1 µM)
binding result [14]: no binding (tested: 0.1 µM)
binding result [15]: no binding (tested: 0.1 µM)
binding result [16]: no binding (tested: 0.1 µM)
binding result [17]: no binding (tested: 0.1 µM)
binding result [18]: no binding (tested: 0.1 µM)
binding result [19]: no binding (tested: 0.1 µM)
binding result [20]: no binding (tested: 0.1 µM)
binding result [21]: no binding (tested: 0.1 µM)
binding result [22]: no binding (tested: 0.1 µM)
binding result [23]: no binding (tested: 0.1 µM)
binding result [24]: no binding (tested: 0.1 µM)
binding result [25]: no binding (tested: 0.1 µM)
binding result [26]: no binding (tested: 0.1 µM)
B1: membrane-type a2DL2/3-DS10 scFv (scFv)
scFv: DYKDDDDKGSGQVQLVQSGAEVKKPGSSVKVSCKASGGTFSSFAISWVRQAPGQGLEWMGGIIPIFGTANYAQKFQGRVTITADESTSTAYMELSSLRSEDTAVYYCARVSGTTGGYYYGMDVWGQGTLVTVSSGGGGSGGGGSGGGGSAIRMTQSPSSVSASVGDRVTITCRASQGIGNWLAWYQQKPGRAPKLLISTASSLQSGVPSRFSGGGSGRGFTLTISSLQLEDFATYYCQQSYITPWTFGQGTKVEIKALSNSIMYFSHFVPVFLPAKPTTTPAPRPPTPAPTIASQPLSLRPEACRPAAGGAVHTRGLDFACDIYIWAPLAGTCGVLLLSLVITLYCNH
notes: On K562 cells; also called a2DL2/3-DS10 WT scFv

binding result [27]: binds
B2: Fab fragment of a2DL2/3-DS10 (Fab, V domains shown)
VH: QVQLVQSGAEVKKPGSSVKVSCKASGGTFSSFAISWVRQAPGQGLEWMGGIIPIFGTANYAQKFQGRVTITADESTSTAYMELSSLRSEDTAVYYCARVSGTTGGYYYGMDVWGQGTLVTVSS
VL: AIRMTQSPSSVSASVGDRVTITCRASQGIGNWLAWYQQKPGRAPKLLISTASSLQSGVPSRFSGGGSGRGFTLTISSLQLEDFATYYCQQSYITPWTFGQGTKVEIKV
notes: Signal peptides left out; also called a2DL2/3-DS10 Fab; 61_3092_02_F10_Fab

binding result [1]: no binding (tested: 0.1 µM)
binding result [2]: no binding (tested: 0.1 µM)
binding result [3]: no binding (tested: 0.1 µM)
binding result [4]: no binding (tested: 0.1 µM)
binding result [5]: no binding (tested: 0.1 µM)
binding result [6]: no binding (tested: 0.1 µM)
binding result [7]: no binding (tested: 0.1 µM)
binding result [8]: no binding (tested: 0.1 µM)
binding result [9]: no binding (tested: 0.1 µM)
binding result [10]: no binding (tested: 0.1 µM)
binding result [11]: no binding (tested: 0.1 µM)
binding result [12]: no binding (tested: 0.1 µM)
binding result [13]: no binding (tested: 0.1 µM)
binding result [14]: no binding (tested: 0.1 µM)
binding result [15]: no binding (tested: 0.1 µM)
binding result [16]: no binding (tested: 0.1 µM)
binding result [17]: no binding (tested: 0.1 µM)
binding result [18]: no binding (tested: 0.1 µM)
binding result [19]: no binding (tested: 0.1 µM)
binding result [20]: no binding (tested: 0.1 µM)
binding result [21]: no binding (tested: 0.1 µM)
binding result [22]: no binding (tested: 0.1 µM)
binding result [23]: no binding (tested: 0.1 µM)
binding result [24]: no binding (tested: 0.1 µM)
binding result [25]: no binding (tested: 0.1 µM)
binding result [26]: no binding (tested: 0.1 µM)
B3: membrane-type a2DL2/3-DS4 scFv (scFv)
scFv: DYKDDDDKGSGEVQLVQSGAEVKKPGSSVKVSCKASGGTFSSYAISWVRQAPGQGLEWMGGIIPIFGTANYAQKFQDRVTITADKSTSTAYMELSSLRSEDTAVYYCARGSRNFDYWGQGTLVTVSSGGGGSGGGGSGGGGSAIRMTQSPSSLSASVGDRVTIPCRASQSIGSYLNWYQQKPGKAPNLLIYAASSLQSGVPSRFSGSGSGTDFTLTISSLQPEDFATYYCQQSYSTPLTFGGGTKVDIKALSNSIMYFSHFVPVFLPAKPTTTPAPRPPTPAPTIASQPLSLRPEACRPAAGGAVHTRGLDFACDIYIWAPLAGTCGVLLLSLVITLYCNH
notes: On K562 cells
